Data reported in the supplement of paper PMC10567573.

B1: EMD (parent)
chain: YQSKGYNDDYYEESYFTTRTYGEP

Variants of: B1
Assay: protein stability index of a GFP-peptide fusion (GPS, HEK-293T) (PSI 1-6); higher = more stable
Conditions: c terminus: a fixed tail appended
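Also: lentivirally expressed fusions sorted by FACS into six bins by GFP to DsRed ratio, PSI derived from sequencing read proportions per bin multiplied by bin number.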

Row | Variant | protein stability index
1 | YQSKGLNDDYYEESYFTTRTYGEP | 2.24
2 | YQSKGINDDYYEESYFTTRTYGEP | 2.83
3 | YQSKGRNDDYYEESYFTTRTYGEP | 2.56
4 | YQSKGKNDDYYEESYFTTRTYGEP | 3.05
5 | YQSKGENDDYYEESYFTTRTYGEP | 3.76
6 | YQSKGANDDYYEESYFTTRTYGEP | 3.26
7 | YQSKGHNDDYYEESYFTTRTYGEP | 2.82
8 | YQSKGNNDDYYEESYFTTRTYGEP | 3.16
9 | YQSKGDNDDYYEESYFTTRTYGEP | 3.68
10 | YQSKGCNDDYYEESYFTTRTYGEP | 2.65
11 | YQSKGWNDDYYEESYFTTRTYGEP | 1.48
12 | YQSKGVNDDYYEESYFTTRTYGEP | 3.31
13 | YQSKGTNDDYYEESYFTTRTYGEP | 3.34
14 | YQSKGPNDDYYEESYFTTRTYGEP | 3.3
15 | YQSKGGNDDYYEESYFTTRTYGEP | 3.01
16 | YQSKGMNDDYYEESYFTTRTYGEP | 2.85
17 | YQSKGFNDDYYEESYFTTRTYGEP | 2.4
18 | YQSKGSNDDYYEESYFTTRTYGEP | 3.77
19 | YQSKGQNDDYYEESYFTTRTYGEP | 2.93
20 | YQSQGYNDDYYEESYFTTRTYGEP | 2.39
21 | YQSHGYNDDYYEESYFTTRTYGEP | 1.97
22 | YQSVGYNDDYYEESYFTTRTYGEP | 2.54
23 | YQSPGYNDDYYEESYFTTRTYGEP | 2.5
24 | YQSRGYNDDYYEESYFTTRTYGEP | 2.44

Row | Variant | protein stability index
25 | YQSSGYNDDYYEESYFTTRTYGEP | 2.3
26 | YQSGGYNDDYYEESYFTTRTYGEP | 2.12
27 | YQSYGYNDDYYEESYFTTRTYGEP | 2.06
28 | YQSFGYNDDYYEESYFTTRTYGEP | 1.69
29 | YQSEGYNDDYYEESYFTTRTYGEP | 3.46
30 | YQSNGYNDDYYEESYFTTRTYGEP | 2.36
31 | YQSTGYNDDYYEESYFTTRTYGEP | 2.38
32 | YQSWGYNDDYYEESYFTTRTYGEP | 2.39
33 | YQSCGYNDDYYEESYFTTRTYGEP | 2.63
34 | YQSLGYNDDYYEESYFTTRTYGEP | 2.06
35 | YQSMGYNDDYYEESYFTTRTYGEP | 2.32
36 | YQSIGYNDDYYEESYFTTRTYGEP | 1.98
37 | YQSAGYNDDYYEESYFTTRTYGEP | 2.36
38 | YQSDGYNDDYYEESYFTTRTYGEP | 3.33
39 | YQSKGYNDDYYGESYFTTRTYGEP | 1.84
40 | YQSKGYNDDYYCESYFTTRTYGEP | 1.75
41 | YQSKGYNDDYYFESYFTTRTYGEP | 2.11
42 | YQSKGYNDDYYDESYFTTRTYGEP | 2.57
43 | YQSKGYNDDYYAESYFTTRTYGEP | 2.19
44 | YWSKGYNDDYYEESYFTTRTYGEP | 1.59
45 | YSSKGYNDDYYEESYFTTRTYGEP | 2.65
46 | YVSKGYNDDYYEESYFTTRTYGEP | 1.9
47 | YKSKGYNDDYYEESYFTTRTYGEP | 3.13
48 | YMSKGYNDDYYEESYFTTRTYGEP | 2.36

Row | Variant | protein stability index
49 | YTSKGYNDDYYEESYFTTRTYGEP | 1.99
50 | YNSKGYNDDYYEESYFTTRTYGEP | 3.11
51 | YLSKGYNDDYYEESYFTTRTYGEP | 2.5
52 | YRSKGYNDDYYEESYFTTRTYGEP | 2.54
53 | YPSKGYNDDYYEESYFTTRTYGEP | 2.29
54 | YYSKGYNDDYYEESYFTTRTYGEP | 2.01
55 | YISKGYNDDYYEESYFTTRTYGEP | 1.93
56 | YQSKGYNDAYYEESYFTTRTYGEP | 1.44
57 | YQSKGYNDVYYEESYFTTRTYGEP | 1.85
58 | YQSKGYNDRYYEESYFTTRTYGEP | 1.96
59 | YQSKGYNDIYYEESYFTTRTYGEP | 1.57
60 | YQSKGYNDEYYEESYFTTRTYGEP | 2.06
61 | YQSKGYNDYYYEESYFTTRTYGEP | 1.79
62 | YQSKGYNDGYYEESYFTTRTYGEP | 2.7
63 | YQSKGYNDTYYEESYFTTRTYGEP | 1.79
64 | YQSKGYNDHYYEESYFTTRTYGEP | 1.89
65 | YQSKGYNDCYYEESYFTTRTYGEP | 1.18
66 | YQSKGYNDKYYEESYFTTRTYGEP | 1.52
67 | YQSKGYNDMYYEESYFTTRTYGEP | 1.96
68 | YQSKGYNDWYYEESYFTTRTYGEP | 2.68
69 | YQSKGYNDNYYEESYFTTRTYGEP | 1.74
70 | YQSKGYNDLYYEESYFTTRTYGEP | 2.01
71 | YQSKGYNDSYYEESYFTTRTYGEP | 1.57
72 | YQSKGYNDFYYEESYFTTRTYGEP | 2.44

Row | Variant | protein stability index
73 | YQSKGYNDPYYEESYFTTRTYGEP | 1.71
74 | YQSKGYNDQYYEESYFTTRTYGEP | 1.93
75 | YQQKGYNDDYYEESYFTTRTYGEP | 2.43
76 | YQYKGYNDDYYEESYFTTRTYGEP | 2.47
77 | YQPKGYNDDYYEESYFTTRTYGEP | 2.72
78 | YQVKGYNDDYYEESYFTTRTYGEP | 1.95
79 | YQAKGYNDDYYEESYFTTRTYGEP | 2.23
80 | YQHKGYNDDYYEESYFTTRTYGEP | 2.42
81 | YQMKGYNDDYYEESYFTTRTYGEP | 2.38
82 | YQEKGYNDDYYEESYFTTRTYGEP | 3.25
83 | YQDKGYNDDYYEESYFTTRTYGEP | 3.31
84 | YQGKGYNDDYYEESYFTTRTYGEP | 2.18
85 | YQFKGYNDDYYEESYFTTRTYGEP | 2.25
86 | YQTKGYNDDYYEESYFTTRTYGEP | 2.54
87 | YQNKGYNDDYYEESYFTTRTYGEP | 2.45
88 | YQLKGYNDDYYEESYFTTRTYGEP | 2.17
89 | YQIKGYNDDYYEESYFTTRTYGEP | 2.14
90 | YQCKGYNDDYYEESYFTTRTYGEP | 1.95
91 | YQRKGYNDDYYEESYFTTRTYGEP | 2.75
92 | YQWKGYNDDYYEESYFTTRTYGEP | 1.72
93 | YQKKGYNDDYYEESYFTTRTYGEP | 2.75
94 | YQSKAYNDDYYEESYFTTRTYGEP | 1.93
